Reference: patent US20170233495

Tested on: All antibodies according to the invention, which were tested (Example 4)

recombinant catalytic domain of human MMP3, sequence (chain, as listed by the source): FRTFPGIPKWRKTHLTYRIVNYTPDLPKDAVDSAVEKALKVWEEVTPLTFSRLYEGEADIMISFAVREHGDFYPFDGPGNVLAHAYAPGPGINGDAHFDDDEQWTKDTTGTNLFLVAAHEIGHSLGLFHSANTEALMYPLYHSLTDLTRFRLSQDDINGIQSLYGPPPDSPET
recombinant catalytic domain of human MMP8, sequence (chain, as listed by the source): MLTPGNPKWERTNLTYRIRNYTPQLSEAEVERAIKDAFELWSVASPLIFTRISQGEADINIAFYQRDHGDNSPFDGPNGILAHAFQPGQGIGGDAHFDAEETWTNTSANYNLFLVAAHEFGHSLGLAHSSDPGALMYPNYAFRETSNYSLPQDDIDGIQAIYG
recombinant catalytic domain of human MMP2, sequence (chain, as listed by the source): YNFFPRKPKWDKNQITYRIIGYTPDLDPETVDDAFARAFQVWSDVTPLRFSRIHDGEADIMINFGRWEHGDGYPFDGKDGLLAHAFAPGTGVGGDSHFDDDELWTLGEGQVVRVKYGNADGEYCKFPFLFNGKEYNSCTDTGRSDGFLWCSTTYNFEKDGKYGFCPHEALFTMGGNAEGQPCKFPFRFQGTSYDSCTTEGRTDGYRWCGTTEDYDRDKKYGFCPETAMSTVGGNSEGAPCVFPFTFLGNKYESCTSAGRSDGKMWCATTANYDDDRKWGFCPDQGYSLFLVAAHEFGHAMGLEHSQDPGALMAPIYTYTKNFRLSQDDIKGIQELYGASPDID
recombinant catalytic domain of human MMP19, sequence (chain, as listed by the source): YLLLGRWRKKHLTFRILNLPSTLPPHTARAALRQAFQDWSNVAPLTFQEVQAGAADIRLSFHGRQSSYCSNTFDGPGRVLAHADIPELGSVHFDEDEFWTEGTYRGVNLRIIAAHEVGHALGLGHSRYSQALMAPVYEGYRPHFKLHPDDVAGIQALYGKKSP

Substance	cleavage of fluorogenic peptide OmniMMP RED by MMP catalytic domain, antibody at 100 nM
recombinant catalytic domain of human MMP8	had no significant effect on the catalytic activity of the eight other human MMPs tested
recombinant catalytic domain of human MMP2	had no significant effect on the catalytic activity of the eight other human MMPs tested
recombinant catalytic domain of human MMP19	had no significant effect on the catalytic activity of the eight other human MMPs tested
recombinant catalytic domain of human MMP13	had no significant effect on the catalytic activity of the eight other human MMPs tested
recombinant catalytic domain of human MMP3	had no significant effect on the catalytic activity of the eight other human MMPs tested
